In US20020042368A1 (IMMUNEX, published 2002):

B1: ADAM-17dis-Fc (Fc fusion)
chain: TSCGNSRVDEGEECDPGIMYLNNDTCCNSDCTLKEGVQCSDRNSPCCKNCQFETAQKKCQEAINATCKGVSYCTGNSSECPPPGNAEDDTVCLDLGKCKDGKCIPFCEREQQLESCACNETDNSCKVCCRDLSGRCVPYVDAEQKNLFLRKGKPCTVGFCDMNGKCEKRVQDVIERFWDFIDQLSINTFGKFLADNRSCDKTHTCPPCPAPEAEGAPSVFLFPPKPKDTLMISRTPEVTCVVVDVSHEDPEVKFNWYVDGVEVHNAKTKPREEQYNSTYRVVSVLTVLHQDWLNGKEYKCKVSNKALPAPIEKTISKAKGQPREPQVYTLPPSRDELTKNQVSLTCLVKGFYPSDIAVEWESNGQPENNYKTTPPVLDSDGSFFLYSKLTVDKSRWQQGNVFSCSVMHEALHNHYTQKSLSLSPGK
notes: also called ADAM-17 disintegrin-Fc polypeptide
B2: ADAM-15dis-Fc (Fc fusion)
chain: TSCGNMFVEPGEQCDCGFLDDCVDPCCDSLTCQLRPGAQCASDGPCCQNCQLRPSGWQCRPTRGDCDLPEFCPGDSSQCPPDVSLGDGEPCAGGQAVCMHGRCASYAQQCQSLWGPGAQPAAPLCLQTANTRGNAFGSCGRNPSGSYVSCTPRDAICGQLQCQTGRTQPLLGSIRDLLWETIDVNGTELNCSWVHLDLGSDVAQPLLTLPGTACGPGLVCIDHRCQRVDLLGAQECRSKCHGHGVCDSNRHCYCEEGWAPPDCTTQLKATSSRSCDKTHTCPPCPAPEAEGAPSVFLFPPKPKDTLMISRTPEVTCVVVDVSHEDPEVKFNWYVDGVEVHNAKTKPREEQYNSTYRVVSVLTVLHQDWLNGKEYKCKVSNKALPAPIEKTISKAKGQPREPQVYTLPPSREEMTKNQVSLTCLVKGFYPSDIAVEWESNGQPENNYKTTPPVLDSDGSFFLYSKLTVDKSRWQQGNVFSCSVMHEALHNHYTQKSLSLSPGK
notes: also called ADAM-15 disintegrin-Fc polypeptide
B3: ADAM-21dis-Fc (Fc fusion)
chain: TSCGNGVVEREEQCDCGSVQQCEQDACCLLNCTLRPGAACAFGLCCKDCKFMPSGELCRQEVNECDLPEWCNGTSHQCPEDRYVQDGIPCSDSAYCYQKRCNNHDQHCREIFGKDAKSASQNCYKEINSQGNRFGHCGINGTTYLKCHISDVFCGRVQCENVRDIPLLQDHFTLQHTHINGVTCWGIDYHLRMNISDIGEVKDGTVCGPGKICIHKKCVSLSVLSHVCLPETCNMKGICNNKHHCHCGYGWSPPYCQHRGYGGSIDSGPASAKRSCDKTHTCPPCPAPEAEGAPSVFLFPPKPKDTLMISRTPEVTCVVVDVSHEDPEVKFNWYVDGVEVHNAKTKPREEQYNSTYRVVSVLTVLHQDWLNGKEYKCKVSNKALPAPIEKTISKAKGQPREPQVYTLPPSRDELTKNQVSLTCLVKGFYPSDIAVEWESNGQPENNYKTTPPVLDSDGSFFLYSKLTVDKSRWQQGNVFSCSVMHEALHNHYTQKSLSLSPGK
notes: also called ADAM-21 disintegrin-Fc polypeptide
B4: ADAM-22dis-Fc (Fc fusion)
chain: TSCGNGFIETGEECDCGTPAECVLEGAECCKKCTLTQDSQCSDGLCCKKCKFQPMGTVCREAVNDCDIRETCSGNSSQCAPNIHKMDGYSCDGVQGICFGGRCKTRDRQCKYIWGQKVTASDKYCYEKLNIEGTEKGNCGKDKDTWIQCNKRDVLCGYLLCTNIGNIPRLGELDGEITSTLVVQQGRTLNCSGGHVKLEEDVDLGYVEDGTPCGPQMMCLEHRCLPVASFNFSTCLSSKEGTICSGNGVCSNELKCVCNRHWIGSDCNTYFPHNDDAKTGITLSGNGVAGTNGSCDKTHTCPPCPAPEAEGAPSVFLFPPKPKDTLMISRTPEVTCVVVDVSHEDPEVKFNWYVDGVEVHNAKTKPREEQYNSTYRVVSVLTVLHQDWLNGKEYKCKVSNKALPAPIEKTISKAKGQPREPQVYTLPPSRDELTKNQVSLTCLVKGFYPSDIAVEWESNGQPENNYKTTPPVLDSDGSFFLYSKLTVDKSRWQQGNVFSCSVMHEALHNHYTQKSLSLSPGK
notes: also called ADAM-22 disintegrin-Fc polypeptide
B5: ADAM-20dis-Fc (Fc fusion)
chain: TSCGNLVVEEGEECDCGTIRQCAKDPCCLLNCTLHPGAACAFGICCKDCKFLPSGTLCRQQVGECDLPEWCNGTSHQCPDDVYVQDGISCNVNAFCYEKTCNNHDIQCKEIFGQDARSASQSCYQEINTQGNRFGHCGIVGTTYVKCWTPDIMCGRVQCENVGVIPNLIEHSTVQQFHLNDTTCWGTDYHLGMAIPDIGEVKDGTVCGPEKICIRKKCASMVHLSQACQPKTCNMRGICNNKQHCHCNHEWAPPYCKDKGYGGSADSGPPPKNNMEGLNVMGKLRGSCDKTHTCPPCPAPEAEGAPSVFLFPPKPKDTLMISRTPEVTCVVVDVSHEDPEVKFNWYVDGVEVHNAKTKPREEQYNSTYRVVSVLTVLHQDWLNGKEYKCKVSNKALPAPIEKTISKAKGQPREPQVYTLPPSRDELTKNQVSLTCLVKGFYPSDIAVEWESNGQPENNYKTTPPVLDSDGSFFLYSKLTVDKSRWQQGNVFSCSVMHEALHNHYTQKSLSLSPGK
notes: also called ADAM-20 disintegrin-Fc polypeptide
B6: ADAM-23dis-Fc (Fc fusion)
chain: TSCGNGYVEAGEECDCGFHVECYGLCCKKCSLSNGAHCSDGPCCNNTSCLFQPRGYECRDAVNECDITEYCTGDSGQCPPNLHKQDGYACNQNQGRCYNGECKARDNQCQYIWGTKAAGSDKFCYEKLNTEGTEKGNCGKDGDRWIQCSKHDVFCGFLLCTNLTRAPRIGQLQGEIIPTSFYHQGRVIDCSGAHVVLDDDTDVGYVEDGTPCGPSMMCLDRKCLQIQALNMSSCPLDSKGKVCSGHGVCSNEATCICDFTWAGTDCSIRDPVRNLHPPKDEGPKGPSATNRSCDKTHTCPPCPAPEAEGAPSVFLFPPKPKDTLMISRTPEVTCVVVDVSHEDPEVKFNWYVDGVEVHNAKTKPREEQYNSTYRVVSVLTVLHQDWLNGKEYKCKVSNKALPAPIEKTISKAKGQPREPQVYTLPPSRDELTKNQVSLTCLVKGFYPSDIAVEWESNGQPENNYKTTPPVLDSDGSFFLYSKLTVDKSRWQQGNVFSCSVMHEALHNHYTQKSLSLSPGK
notes: also called ADAM-23 disintegrin-Fc polypeptide

How the values were obtained:
integrin αvβ3 = target: T1, integrin αvβ3 (human, UniProt P06756 31-1048; P05106 27-788); test: flow cytometry on HMVEC-d; dis-Fc binding with 5-8 fold excess mAb LM609 (competitor) vs control mAb
T1 construct: whole, on cells; Native integrin on primary human dermal microvascular endothelial cells (HMVEC-d); also called CD51/61
Protocol: (§1) Prior to performing binding studies, HMVEC-d were removed from culture vessels using trypsin-EDTA. The cells were washed in media containing serum and resuspended in binding medium which consisted of PBS containing 1 mM Ca2+, 1 mM Mg2+ and 0.5 mM Mn2+, 0.1% sodium azide, 10% Normal goat serum, 2% rabbit serum and 2% fetal bovine serum.
(§2) One hundred microliters of cell suspension, containing 200,000 to 500,000 HMVEC-d, were added to 12×75 mm plastic test tubes. Monoclonal antibodies specific for one of the integrins, or a control monoclonal antibody (CD29 or M15), were added to the cell suspensions at a concentration of 100 μg/ml (5-8 fold mass excess) 15 minutes prior to addition of disintegrin-Fc fusion proteins. ADAM disintegrin-Fc polypeptides and control Fc fusion polypeptides (P7.5II.Fc) were added, at various concentrations from 12.5 to 20 μg/ml, to the cell suspensions and incubated for 1 hour at 30° C. Unbound Fc polypeptides were washed away by centrifugation of cells in 2 mls of binding media. The washed cell pellets were resuspended in binding medium and then incubated at 30° C. for 30 minutes with goat anti-human Fc-specific biotinylated antibody at a concentration of 2.5 μg/ml for 30 minutes. After centrifugation and washing of the cell pellets, the cells were resuspended in binding medium and bound anti-human Fc-biotin was detected by adding streptavidin-phycoerythrin conjugate to the cell suspension at a 1:1000 dilution (1 μg/ml) and incubating at 30° C. for 30 minutes. The unbound streptavidin-phycoerythrin was washed away and the cells were resuspended in binding medium containing propidum iodide. The level of fluorescent binding (disintegrin-Fc binding) was determined by flow cytometry.
(§3) The level of binding of each ADAM disintegrin-Fc polypeptide was determined in the presence of anti-integrin specific mAb and in the presence of control mAb. Both the intensity of binding (MFI) and the percentage of cells binding were determined. Percent inhibition was calculated using the formula [1-(MFI control-MFI integrin mAb)/MFI control.

integrin α5β1 = target: T2, integrin α5β1 (human, UniProt P08648 42-1049; P05556 21-798); test: flow cytometry on HMVEC-d; dis-Fc binding with 5-8 fold excess mAb SAM-1 (competitor) vs control mAb
T2 construct: whole, on cells; Native integrin on HMVEC-d; also called CD49e
Protocol: as §1, §2, §3

| Binder | percent inhibition of binding (integrin αvβ3) [%] | percent inhibition of binding (integrin α5β1) [%] |
| --- | --- | --- |
| B1 | 50 |  |
| B2 | 60 | 30 |
| B3 |  | 54 |
| B4 | 42 | 36 |
| B5 | 58 |  |
| B6 |  | 49 |
